Results reported in patent US20080280827A1.

Key:
[1] = molecular target: recombinant human LAP (R & D) (UniProt P01137)
[2] = molecular target: plasmin/plasma kallikrein; experiment: cell-based or functional assay

Sequence of recombinant human LAP (R & D) (P01137 whole entry, looked up): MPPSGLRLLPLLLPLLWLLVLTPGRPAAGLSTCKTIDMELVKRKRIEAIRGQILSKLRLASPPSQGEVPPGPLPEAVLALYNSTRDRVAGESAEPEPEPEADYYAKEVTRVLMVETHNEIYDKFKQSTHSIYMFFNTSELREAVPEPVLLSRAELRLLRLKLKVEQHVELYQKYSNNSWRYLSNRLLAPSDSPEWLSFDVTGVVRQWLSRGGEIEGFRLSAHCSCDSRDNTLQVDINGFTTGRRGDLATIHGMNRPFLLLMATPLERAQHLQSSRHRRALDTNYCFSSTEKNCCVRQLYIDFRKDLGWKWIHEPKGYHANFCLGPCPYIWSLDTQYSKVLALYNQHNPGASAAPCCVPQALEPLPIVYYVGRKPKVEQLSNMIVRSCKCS

Row | Molecule | inhibition of generation of active TGF-β in conditioned medium of rat hepatic stellate cells (ELISA, peptide 0.5 mM) [2] [%] | further results
1 | plasma kallikrein (SIGMA) | – | LAP cleavage reaction (western blot: LAP 41 kDa, LAP degradation product 38 kDa) [1]: attenuation of LAP band found in panel A, and generation of LAP degradation product found in panel B
2 | QILSQQQQASP [QPQ peptide] | 90 | –
3 | TGVVRQWLSRG [T200 peptide (Thr-Gly-Val-Val-Arg-Gln-Trp-Leu-Ser-Arg-Gly)] | – | amount of active TGF-β generated into the conditioned medium, relative to control [2]: 74 % of control
4 | QILSKLRLASP [QP peptide (Gln-Ile-Leu-Ser-Lys-Leu-Arg-Leu-Ala-Ser-Pro)] | 55 | –
